Source: the supplement of paper PMC10567573

B1: WDFY1 (parent)
chain: LLIPKEDGVITASEDRTIRVWLKR
B2: SLC2A12 (parent)
chain: LTLVFFVQITGQPNILFYASTVLK
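Also: lentivirally expressed fusions sorted by FACS into six bins by GFP to DsRed ratio, PSI derived from sequencing read proportions per bin multiplied by bin number.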

Variants of: B1
Assay: protein stability index of a GFP-peptide fusion (GPS, HEK-293T) (PSI 1-6); higher = more stable
Settings: c terminus: a fixed tail appended
Work on LLIPKEDGVITASEDRTIDVWLKR yielded a protein stability index of 2.28.
LLIPKEDGVITASEDRTIEVWLKR showed a protein stability index of 1.92.
Work on LLIPKEDGVITASEDRTIGVWLKR yielded a protein stability index of 1.8.
For LLIPKEDGVITASEDRTIKVWLKR, the protein stability index was 2.09.
In the case of LLIPKEDGVITASEDRTILVWLKR, the protein stability index is reported as 1.31.
In the case of LLIPKEDGVITASEDRTIMVWLKR, the protein stability index is reported as 2.44.
For LLIPKEDGVITASEDRTINVWLKR, the protein stability index was 1.83.
Work on LLIPKEDGVITASEDRTIPVWLKR yielded a protein stability index of 2.45.
In the case of LLIPKEDGVITASEDRTISVWLKR, the protein stability index is reported as 1.91.
Variant LLIPKEDGVITASEDRTITVWLKR has a protein stability index of 1.7.
Work on LLIPKEDGVITASEDRTIVVWLKR yielded a protein stability index of 2.21.
Work on LLIPKEDGVITASEDRTIWVWLKR yielded a protein stability index of 1.71.
In the case of LLIPKEDGVITASEDRTIYVWLKR, the protein stability index is reported as 2.66.
LLIPKEDGVITASEDRTIRCWLKR gave a protein stability index of 2.39.
For LLIPKEDGVITASEDRTIRDWLKR, the protein stability index was 2.52.
For LLIPKEDGVITASEDRTIREWLKR, the protein stability index was 1.73.
Variant LLIPKEDGVITASEDRTIRHWLKR has a protein stability index of 2.1.
For LLIPKEDGVITASEDRTIRIWLKR, the protein stability index was 2.64.
Work on LLIPKEDGVITASEDRTIRKWLKR yielded a protein stability index of 2.41.
Variant LLIPKEDGVITASEDRTIRLWLKR has a protein stability index of 2.29.
In the case of LLIPKEDGVITASEDRTIRMWLKR, the protein stability index is reported as 1.66.
LLIPKEDGVITASEDRTIRPWLKR showed a protein stability index of 2.44.
LLIPKEDGVITASEDRTIRRWLKR showed a protein stability index of 1.64.
For LLIPKEDGVITASEDRTIRSWLKR, the protein stability index was 2.15.
With LLIPKEDGVITASEDRTIRTWLKR the protein stability index was 2.95.
Variant LLIPKEDGVITASEDRTIRWWLKR has a protein stability index of 1.72.
For LLIPKEDGVITASEDRTIRYWLKR, the protein stability index was 1.87.
In the case of LLIPKEDGVITASEDRTIRVALKR, the protein stability index is reported as 3.07.
With LLIPKEDGVITASEDRTIRVCLKR the protein stability index was 3.44.
With LLIPKEDGVITASEDRTIRVDLKR the protein stability index was 3.87.
Work on LLIPKEDGVITASEDRTIRVELKR yielded a protein stability index of 3.37.
Variant LLIPKEDGVITASEDRTIRVFLKR has a protein stability index of 3.61.
In the case of LLIPKEDGVITASEDRTIRVHLKR, the protein stability index is reported as 3.17.
In the case of LLIPKEDGVITASEDRTIRVILKR, the protein stability index is reported as 3.04.
LLIPKEDGVITASEDRTIRVLLKR gave a protein stability index of 2.78.
In the case of LLIPKEDGVITASEDRTIRVMLKR, the protein stability index is reported as 2.06.
LLIPKEDGVITASEDRTIRVNLKR gave a protein stability index of 3.33.
With LLIPKEDGVITASEDRTIRVQLKR the protein stability index was 4.25.
With LLIPKEDGVITASEDRTIRVRLKR the protein stability index was 2.77.
With LLIPKEDGVITASEDRTIRVSLKR the protein stability index was 2.8.
LLIPKEDGVITASEDRTIRVTLKR showed a protein stability index of 2.46.
Variant LLIPKEDGVITASEDRTIRVVLKR has a protein stability index of 3.07.
Work on LLIPKEDGVITASEDRTIRVWCKR yielded a protein stability index of 2.48.
LLIPKEDGVITASEDRTIRVWEKR gave a protein stability index of 3.61.
LLIPKEDGVITASEDRTIRVWFKR showed a protein stability index of 2.15.
With LLIPKEDGVITASEDRTIRVWHKR the protein stability index was 2.75.
LLIPKEDGVITASEDRTIRVWIKR gave a protein stability index of 2.56.
Work on LLIPKEDGVITASEDRTIRVWKKR yielded a protein stability index of 2.91.
LLIPKEDGVITASEDRTIRVWMKR gave a protein stability index of 3.01.
LLIPKEDGVITASEDRTIRVWNKR showed a protein stability index of 2.77.
With LLIPKEDGVITASEDRTIRVWPKR the protein stability index was 4.22.
For LLIPKEDGVITASEDRTIRVWRKR, the protein stability index was 3.11.
Work on LLIPKEDGVITASEDRTIRVWSKR yielded a protein stability index of 2.79.
In the case of LLIPKEDGVITASEDRTIRVWTKR, the protein stability index is reported as 2.54.
Variant LLIPKEDGVITASEDRTIRVWVKR has a protein stability index of 2.17.
LLIPKEDGVITASEDRTIRVWYKR showed a protein stability index of 2.83.
LLIPKEDGVITASEDRTIRVWLAR showed a protein stability index of 1.79.
LLIPKEDGVITASEDRTIRVWLCR showed a protein stability index of 2.24.
In the case of LLIPKEDGVITASEDRTIRVWLDR, the protein stability index is reported as 2.2.
With LLIPKEDGVITASEDRTIRVWLER the protein stability index was 2.9.
Variant LLIPKEDGVITASEDRTIRVWLFR has a protein stability index of 3.36.
For LLIPKEDGVITASEDRTIRVWLGR, the protein stability index was 1.83.
With LLIPKEDGVITASEDRTIRVWLHR the protein stability index was 1.7.
Variant LLIPKEDGVITASEDRTIRVWLIR has a protein stability index of 2.1.
LLIPKEDGVITASEDRTIRVWLLR gave a protein stability index of 2.44.
With LLIPKEDGVITASEDRTIRVWLMR the protein stability index was 1.76.
With LLIPKEDGVITASEDRTIRVWLNR the protein stability index was 2.63.
Work on LLIPKEDGVITASEDRTIRVWLPR yielded a protein stability index of 2.15.
In the case of LLIPKEDGVITASEDRTIRVWLQR, the protein stability index is reported as 1.4.
With LLIPKEDGVITASEDRTIRVWLRR the protein stability index was 2.74.
LLIPKEDGVITASEDRTIRVWLSR gave a protein stability index of 2.1.
Work on LLIPKEDGVITASEDRTIRVWLTR yielded a protein stability index of 2.62.
LLIPKEDGVITASEDRTIRVWLVR showed a protein stability index of 2.28.
LLIPKEDGVITASEDRTIRVWLWR gave a protein stability index of 2.13.
LLIPKEDGVITASEDRTIRVWLKA gave a protein stability index of 1.84.
Variant LLIPKEDGVITASEDRTIRVWLKD has a protein stability index of 3.09.
LLIPKEDGVITASEDRTIRVWLKE gave a protein stability index of 2.48.
For LLIPKEDGVITASEDRTIRVWLKF, the protein stability index was 2.44.
Work on LLIPKEDGVITASEDRTIRVWLKG yielded a protein stability index of 3.37.
With LLIPKEDGVITASEDRTIRVWLKH the protein stability index was 2.03.
LLIPKEDGVITASEDRTIRVWLKI gave a protein stability index of 3.32.
For LLIPKEDGVITASEDRTIRVWLKK, the protein stability index was 2.08.
LLIPKEDGVITASEDRTIRVWLKL gave a protein stability index of 1.83.
For LLIPKEDGVITASEDRTIRVWLKM, the protein stability index was 1.53.
In the case of LLIPKEDGVITASEDRTIRVWLKN, the protein stability index is reported as 2.34.
With LLIPKEDGVITASEDRTIRVWLKP the protein stability index was 2.07.
In the case of LLIPKEDGVITASEDRTIRVWLKQ, the protein stability index is reported as 2.71.
In the case of LLIPKEDGVITASEDRTIRVWLKS, the protein stability index is reported as 2.18.
With LLIPKEDGVITASEDRTIRVWLKV the protein stability index was 1.69.
With LLIPKEDGVITASEDRTIRVWLKW the protein stability index was 2.01.
With LLIPKEDGVITASEDRTIRVWLKY the protein stability index was 2.07.

Variants of: B2
Assay: as above
Settings: c terminus: a fixed tail appended
Variant ATLVFFVQITGQPNILFYASTVLK has a protein stability index of 2.8.
For CTLVFFVQITGQPNILFYASTVLK, the protein stability index was 2.29.
In the case of DTLVFFVQITGQPNILFYASTVLK, the protein stability index is reported as 2.23.
